Results reported in publication PMC8155523, “Non-covalent Interaction With SUMO Enhances the Activity of Human Cytomegalovirus Protein IE1” (Frontiers in Cell and Developmental Biology, 2021).

B1: IE1-SIM1 peptide (peptide)
peptide: RPLITKPEVISVMKRRIEE
notes: Human Cytomegalovirus Immediate-Early protein 1 (IE1), peptide around SIM1 (VISV, aa 335-338); source: synthetic peptide (Lifetein)
B2: IE1-SIM2 peptide (peptide)
peptide: PATIPLSSVIVAENSDQEE
notes: Human Cytomegalovirus Immediate-Early protein 1 (IE1), peptide around SIM2 (VIVA, aa 416-419); source: synthetic peptide (Lifetein)

Target: T1, SUMO1 (UniProt P63165 1-97)
T1 construct: SUMO1, expressed from SUMO1-pQE80L; Uniformly 15N-labelled for NMR; Plasmid obtained from Rama Koti, TIFR, Mumbai; also called 15N-SUMO1; 15N-wt-SUMO1; source: E. coli BL21 (DE3), 15NH4Cl-M9 medium, purified (Ni-NTA, Superdex 75)
Assay: NMR titration; IE1-SIM peptides titrated into ~0.3 mM 15N-SUMO1 or 15N-SUMO2 up to 1:4 (SUMO:SIM); 15N-HSQC, 298K, 800 MHz; PBS, 5 mM DTT, 10% D2O; CSPs fit to a 1:1 model
Conditions: both partners purified

T1 sequence (P63165 1-97): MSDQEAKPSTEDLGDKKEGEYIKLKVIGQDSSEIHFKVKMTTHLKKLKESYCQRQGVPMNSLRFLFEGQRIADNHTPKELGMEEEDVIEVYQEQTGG

| Binder | Kd [µM] |
| --- | --- |
| B1 | 134 ± 23.2 |
| B2 | 136 ± 32 |
